Like-named read-outs stand apart in the source and are kept apart here.
Experiments:
[1] = target: DesAOMT, O-methyltransferase from Desulfuromonas acetoxidans (Desulfuromonas acetoxidans); assay: SEC
[2] = target: DesAOMT, O-methyltransferase from Desulfuromonas acetoxidans (Desulfuromonas acetoxidans); assay: crystal structure
[3] = target: StrAOMT, O-methyltransferase from Streptomyces avermitilis (Streptomyces avermitilis); assay: crystal structure
[4] = target: StrAOMT, O-methyltransferase from Streptomyces avermitilis (Streptomyces avermitilis); assay: crystal structure; remark: listed apart in the source

Substance	stoichiometry N [1]	stoichiometry N [2]	stoichiometry N [3]	stoichiometry N [4]
DesAOMT, O-methyltransferase from Desulfuromonas acetoxidans (enzyme)	2	2		
StrAOMT, O-methyltransferase from Streptomyces avermitilis (enzyme)			2	2

From paper doi:10.1101/2023.01.28.526015
